Data on 12 molecules can be found in patent US20230183379A1 (INSERM INSTITUT NATIONAL DE LA SANT ET DE LA RECHERCHE M …, published 2023).

Test [1] deals with T1, transferrin receptor 1 (TfR1), human (human, UniProt P02786 1-760).
T1 construct: whole, on cells; always tested on cells; also called human TfR1; native TfR1
In words: FACS on human Raji cells, anti-human IgG1-FITC.

Test [2] concerns the target T2, transferrin receptor 1 (TfR1), mouse (mouse, UniProt Q62351 1-763).
T2 construct: whole, on cells; also called mouse TfR1
In words: FACS on mouse P815 cells, anti-human IgG1-FITC.

The target in test [3] is T1, transferrin receptor 1 (TfR1), human. The test can be described thus: cell-based or functional assay.
In test [4] the target is T2, transferrin receptor 1 (TfR1), mouse. The test can be described thus: FACS on mouse P815 cells at 4 °C.
Test [5] addresses T1, transferrin receptor 1 (TfR1), human. In words: FACS on Raji cells at 4 °C.
Protocol: All incubation steps were done on ice. Raji cells (5×10^5 cells) were resuspended in 100 μL of FACS buffer [PBS, 1% FBS] containing various concentrations of the primary antibody for 1 h, washed twice with FACS buffer, and then incubated with the suitable fluorescent secondary antibody. After a final wash, cells were analyzed by FACS. The apparent affinity was determined using the GraphPad software.
Test [6] has the same target. In words: FACS on Raji cells at 4 °C, anti-human IgG (Fc specific)-FITC.
Test [7] has as its target T3, mouse IL-6 (mouse, UniProt P08505 25-211).
T3 construct: Bought recombinant protein; also called Recombinant mouse IL-6 (Peprotech, 216-16)
T3 sequence (looked up): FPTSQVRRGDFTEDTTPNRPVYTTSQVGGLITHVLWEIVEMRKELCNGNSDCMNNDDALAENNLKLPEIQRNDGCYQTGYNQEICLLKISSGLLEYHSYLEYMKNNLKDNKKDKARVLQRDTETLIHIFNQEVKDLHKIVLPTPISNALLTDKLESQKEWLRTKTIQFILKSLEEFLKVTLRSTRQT
The test can be described thus: ELISA on adsorbed recombinant mouse IL-6, pH 7.4, 40 nM antibody. For orientation: ELISA stands for enzyme-linked immunosorbent assay.

T2 sequence (Q62351 whole entry): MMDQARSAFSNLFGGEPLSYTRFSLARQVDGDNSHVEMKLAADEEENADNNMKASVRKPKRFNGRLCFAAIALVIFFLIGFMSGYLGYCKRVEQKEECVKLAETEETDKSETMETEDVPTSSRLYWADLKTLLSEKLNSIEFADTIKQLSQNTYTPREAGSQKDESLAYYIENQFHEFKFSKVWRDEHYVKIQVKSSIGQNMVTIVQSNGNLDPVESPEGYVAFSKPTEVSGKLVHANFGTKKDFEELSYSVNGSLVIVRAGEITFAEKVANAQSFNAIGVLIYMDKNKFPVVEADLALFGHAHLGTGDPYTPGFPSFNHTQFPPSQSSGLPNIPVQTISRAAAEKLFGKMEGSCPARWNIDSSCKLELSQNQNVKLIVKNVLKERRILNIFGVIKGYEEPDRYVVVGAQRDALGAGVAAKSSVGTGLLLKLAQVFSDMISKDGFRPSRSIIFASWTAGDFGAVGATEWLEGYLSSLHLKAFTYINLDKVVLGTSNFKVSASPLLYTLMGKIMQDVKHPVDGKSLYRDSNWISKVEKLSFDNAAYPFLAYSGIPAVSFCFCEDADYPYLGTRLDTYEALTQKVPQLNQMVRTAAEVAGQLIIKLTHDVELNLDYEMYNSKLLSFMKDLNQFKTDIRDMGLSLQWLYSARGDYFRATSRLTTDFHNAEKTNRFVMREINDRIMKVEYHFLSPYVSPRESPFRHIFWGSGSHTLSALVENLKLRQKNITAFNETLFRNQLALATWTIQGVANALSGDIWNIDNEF
T1 sequence (P02786 whole entry): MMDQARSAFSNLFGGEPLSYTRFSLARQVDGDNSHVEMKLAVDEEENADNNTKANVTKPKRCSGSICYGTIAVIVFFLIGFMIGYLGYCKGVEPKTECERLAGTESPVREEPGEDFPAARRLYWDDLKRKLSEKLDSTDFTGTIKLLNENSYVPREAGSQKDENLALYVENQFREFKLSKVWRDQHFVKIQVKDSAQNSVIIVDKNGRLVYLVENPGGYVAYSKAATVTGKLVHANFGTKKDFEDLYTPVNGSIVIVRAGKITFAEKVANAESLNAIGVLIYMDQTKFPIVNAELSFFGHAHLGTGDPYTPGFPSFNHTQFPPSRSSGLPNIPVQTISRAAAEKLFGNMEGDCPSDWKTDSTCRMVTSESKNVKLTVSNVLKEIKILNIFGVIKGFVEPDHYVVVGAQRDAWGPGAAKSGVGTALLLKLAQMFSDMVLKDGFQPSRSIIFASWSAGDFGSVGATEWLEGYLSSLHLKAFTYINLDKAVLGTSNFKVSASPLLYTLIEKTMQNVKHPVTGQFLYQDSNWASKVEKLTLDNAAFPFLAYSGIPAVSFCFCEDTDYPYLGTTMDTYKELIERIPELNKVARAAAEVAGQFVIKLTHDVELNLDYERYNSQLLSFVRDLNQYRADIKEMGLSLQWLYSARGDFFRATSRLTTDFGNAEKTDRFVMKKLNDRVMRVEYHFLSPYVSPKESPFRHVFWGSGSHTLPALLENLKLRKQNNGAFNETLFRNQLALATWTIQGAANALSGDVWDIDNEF

B1: H9 scFv2-Fc (Fc fusion)
chain: QVQLAESGGGLVKPGGSLRLSCAASGFTFSDYYMSWIRQAPGKGLEWVSYISTSGSSIYYVDSVKGRFTISRDNAKNSLYLQMDSLRDDDTAVYYCARDLHGDYAFDSWGQGTLVTVSSGGGGSGGGGSGGGGSSELTQDPAVSVALGQTVRITCQGDSLRSYYASWYQQKPGQAPVLVIYGKNNRPSGIPDRFSGSKSGNSASLDISGLQSEDEADYYCATWDDNLSGPIFGGGTKVTVLG
notes: Bivalent (scFv)2-Fc; also called H9-Fc; not shown: Fc fragment of human IgG1 (pFUSE-hFc2(IL2ss) vector)
For the molecule B1, the binding result in test [1] is reported as “binds”.

B2: F12 scFv2-Fc (Fc fusion)
chain: QVQLQESGGGLVQPGGSLRLSCAASGFSFNTYTMHWVRQAPGKGLEWVADIAYDGSTKYYADSVKGRFTISRDNAKNSLYLQMNSLRAEDTAVYYCARDAVAGEGYFDLWGRGTLVTVSSGGGGSGGGGSGGGGSQSALTQDPAVSVALGQTVRITCQGDSLRSYYASWYQQLPGTAPKLLIYRNNQRPSGVPDRFSGSKSGTSASLAISGLRSEDEADYYCAAWDDSLSAWVFGGGTKLTVLGA
notes: Bivalent (scFv)2-Fc; also called F12-Fc; not shown: Fc fragment of human IgG1 (pFUSE-hFc2(IL2ss) vector)
As to B2, the binding result in test [1] and in test [2] was “binds” each time.

B3: H7-scFv2 (50 kD dimeric (scFv)2 H7 antibody) (scFv)
scFv: QVQLQESGGGVVQPGRSLRLSCAASRFTFSSYAMHWVRQAPGKGLEWVAVISYDGSNKYYADSVKGRFTISRDNSKNTLYLQMNSLRAEDTAVYYCARDLSGYGDYPDYWGQGTLVTVSSGGGGSGGGGSGGGGSSELTQDPAVSVALGQTVRITCQGDSLRSYYASWYQQKPGQAPVLVMYGRNERPSGVPDRFSGSKSGTSASLAISGLQPEDEANYYCAGWDDSLTGPVFGGGTKLTVLG
Turning to B3, the “ERY-1 cell viability inhibition, IC50” value in test [3] is 2 nM.

B4: H7-scFv (monovalent) (scFv)
scFv: B3 scFv
In the case of B4, the “ERY-1 cell viability inhibition, IC50” value in test [3] was found to be 200 nM.

B5: H7 scFv2-Fc (H7-Fc) (Fc fusion)
chain: B3 scFv
notes: Bivalent 100 kD (scFv)2-Fc made in HEK-293 T cells; not shown: Fc fragment of human IgG1 (pFUSE-hFc2(IL2ss) vector)
As to B5, the EC50 in test [4] came to 0.8 nM.

B6: scFv-Fc bispecific antibody (anti-TfR1 scFv / anti-IL-6 scFv, knob into hole Fc) (bispecific antibody)
chain 1: B3 scFv
chain 2: EVQLVQSGGGVVQPGESLRLSCAASGFTFSSYSMNWVRQAPGKGLEWVSVIYSGGSTYYADSVKGRFTISRDNSKNTLYLQMNSLRAEDTAVYYCAREVYHSSGYDDAFDIWGRGTMVTVSSGGGGSGGGGSGGGGSDIQMTQSPSTLSASIGDRVTITCRASEGIYHWLAWYQQKPGKAPKLLIYKASSLASGAPSRFSGSGSGTDFTLTISSLQPDDFATYYCQQYSNYPLTFGGGTKLEIK
In turn, B6 displayed a 50% effective concentration (EC50) in test [5] of 30.1 nM.

B7: C32-IgG1 (antibody, V domains shown)
VH: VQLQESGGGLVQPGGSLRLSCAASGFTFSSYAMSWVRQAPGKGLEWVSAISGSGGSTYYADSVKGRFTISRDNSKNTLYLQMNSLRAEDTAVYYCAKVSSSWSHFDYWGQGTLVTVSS
VL: DVVMTQSPSTLSASVGDRVTITCRASQYISNWLAWYQQKPGKAPKLLIYKASSLESGVPSRFSGSGSGTEFTLTISSLQPEDFATYYCQESYNTPLFTFGPGTKLEIKR
notes: Full length human IgG1; also called C32 (IgG1 format)
As for B7, the binding result in test [2] is given as “no binding”.

B8: F12-IgG1 (IgG1 anti-TfR1 F12 antibody) (antibody, V domains shown)
VH: QVQLQESGGGLVQPGGSLRLSCAASGFSFNTYTMHWVRQAPGKGLEWVADIAYDGSTKYYADSVKGRFTISRDNAKNSLYLQMNSLRAEDTAVYYCARDAVAGEGYFDLWGRGTLVTVSS
VL: QSALTQDPAVSVALGQTVRITCQGDSLRSYYASWYQQLPGTAPKLLIYRNNQRPSGVPDRFSGSKSGTSASLAISGLRSEDEADYYCAAWDDSLSAWVFGGGTKLTVLG
notes: Human IgG1; Produced as monoclonal control beside the tetravalent BsAb; also called F12 (anti TfR1 Human IgG1); parental mAb anti-TfR1 F12
Molecule B8 gave an EC50 in test [6] of 1 nM. Also, in test [3], the “viability of Raji cells, 3 days, IC50” value turned out to be 0.8 nM; the “viability of XG6 and XG7 cells in 1% FCS, 3 days, IC50 of the combination F12 + VH4” value came out at 1 nM; the “viability of XG6 cells, 5 days, IC50” value is 4 nM.

B9: G9 scFv2-Fc (Fc fusion)
chain: QVQLVESGGGLVEPGGSLRLSCAASGFTFSNYAINWVRQAPGKGLEWVANIHHDGNGKYYVDSVEGRFTISRDNAKNSLYLQMDSLRAEDTAIYYCARDGYGGYLDLWGQGTLVTVSSGGGGSGGGGSGGGGSSELTQDPAVSVALGQTVRITCQGDSLRSYYASWYQQKPGQAPVLVIYGKNNRPSGIPDRFSGSGSGNTASLTITGAQAEDEADYYCAAWDDSLSGPVFGGGTKVTVLG
notes: Bivalent (scFv)2-Fc; also called G9-Fc; not shown: Fc fragment of human IgG1 (pFUSE-hFc2(IL2ss) vector)
Turning to B9, the binding result in test [1] is listed as “binds”.

B10: F2 scFv2-Fc (Fc fusion)
chain: QVQLQQSGGGVVQPGGSLRLSCAASEFTFSASGMHWVRQAPGKGLEWMAFIAYDGNQKFYADSVKGRFTISRDNSKNTLYLQMDSLRGEDTAVYYCAKEMQREGYFDYWGQGTLVTVSSGGGGSGGGGSGGGGSNFMLTQDPAVSVALGQTVRITCQGDSLRSYYASWYQQKPGQAPVLVIYGKNNRPSGIPDRFSGSKSGNSASLDISGLQSEDEADYYCATWDDNLSGPIFGGGTKVTVLG
notes: Bivalent (scFv)2-Fc; also called F2-Fc; not shown: Fc fragment of human IgG1 (pFUSE-hFc2(IL2ss) vector)
On to B10, for which, in test [1], the binding result was “binds”.

B11: VH4 anti-IL-6 human IgG1 (antibody, V domains shown)
VH: EVQLVQSGGGVVQPGESLRLSCAASGFTFSSYSMNWVRQAPGKGLEWVSVIYSGGSTYYADSVKGRFTISRDNSKNTLYLQMNSLRAEDTAVYYCAREVYHSSGYDDAFDIWGRGTMVTVSS
VL: DIQMTQSPSTLSASIGDRVTITCRASEGIYHWLAWYQQKPGKAPKLLIYKASSLASGAPSRFSGSGSGTDFTLTISSLQPDDFATYYCQQYSNYPLTFGGGTKLEIK
notes: Human IgG1; also called VH4-IgG1; anti-IL-6 VH4
Regarding B11, the binding result in test [7] is recorded as “binds”.

B12: H7-IgG1 (full length human IgG1 anti-TfR1) (antibody, V domains shown)
VH: QVQLQESGGGVVQPGRSLRLSCAASRFTFSSYAMHWVRQAPGKGLEWVAVISYDGSNKYYADSVKGRFTISRDNSKNTLYLQMNSLRAEDTAVYYCARDLSGYGDYPDYWGQGTLVTVSS
VL: SELTQDPAVSVALGQTVRITCQGDSLRSYYASWYQQKPGQAPVLVMYGRNERPSGVPDRFSGSKSGTSASLAISGLQPEDEANYYCAGWDDSLTGPVFGGGTKLTVLG
notes: also called H7-anti-TfR1 IgG1
For B12, in test [2], the binding result was “no binding”.

By EC50 is commonly meant the concentration that produces a half-maximal response. A high value points to weaker potency.
